Experimental data reported in US20170101470A1 (PROTHENA BIOSCIENCES, published 2017).

T1: recombinant hMCAM-His (human, UniProt P43121 24-559)
T1 chain: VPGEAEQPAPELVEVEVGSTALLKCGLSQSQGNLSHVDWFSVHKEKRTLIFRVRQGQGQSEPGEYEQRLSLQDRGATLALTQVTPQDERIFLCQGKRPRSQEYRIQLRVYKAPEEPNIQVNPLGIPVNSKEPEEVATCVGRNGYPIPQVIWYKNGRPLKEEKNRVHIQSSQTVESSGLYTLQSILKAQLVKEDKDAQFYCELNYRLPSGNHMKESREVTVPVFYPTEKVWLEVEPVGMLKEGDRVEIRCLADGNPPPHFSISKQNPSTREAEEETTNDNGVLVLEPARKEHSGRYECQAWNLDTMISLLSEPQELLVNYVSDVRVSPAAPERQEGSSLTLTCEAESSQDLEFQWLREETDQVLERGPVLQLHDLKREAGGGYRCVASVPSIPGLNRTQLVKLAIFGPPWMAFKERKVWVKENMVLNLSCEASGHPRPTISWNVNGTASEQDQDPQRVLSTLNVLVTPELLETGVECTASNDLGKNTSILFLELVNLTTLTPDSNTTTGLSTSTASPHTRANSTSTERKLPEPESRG

B1: human MCAM expressed on CHO cells (full length human MCAM gene) (receptor)
chain: VPGEAEQPAPELVEVEVGSTALLKCGLSQSQGNLSHVDWFSVHKEKRTLIFRVRQGQGQSEPGEYEQRLSLQDRGATLALTQVTPQDERIFLCQGKRPRSQEYRIQLRVYKAPEEPNIQVNPLGIPVNSKEPEEVATCVGRNGYPIPQVIWYKNGRPLKEEKNRVHIQSSQTVESSGLYTLQSILKAQLVKEDKDAQFYCELNYRLPSGNHMKESREVTVPVFYPTEKVWLEVEPVGMLKEGDRVEIRCLADGNPPPHFSISKQNPSTREAEEETTNDNGVLVLEPARKEHSGRYECQAWNLDTMISLLSEPQELLVNYVSDVRVSPAAPERQEGSSLTLTCEAESSQDLEFQWLREETDQVLERGPVLQLHDLKREAGGGYRCVASVPSIPGLNRTQLVKLAIFGPPWMAFKERKVWVKENMVLNLSCEASGHPRPTISWNVNGTASEQDQDPQRVLSTLNVLVTPELLETGVECTASNDLGKNTSILFLELVNLTTLTPDSNTTTGLSTSTASPHTRANSTSTERKLPEPESRGVVIVAVIVCILVLAVLGAVLYFLYKKGKLPCRRSGKQEITLPPSRKTELVVEVKSDKLPEEMGLLQGSSGDKRAPGDQGEKYIDLRH
notes: also called hMCAM expressing CHO cells; CD146

Key:
recombinant hMCAM-His [1] = biological target: T1, recombinant hMCAM-His; experiment: competitive ELISA on coated hMCAM-His, competitor biotinylated rodent or chimeric 2120; IC50 relative to rodent 2120
Method: (§1) The apparent affinities of the humanized antibodies were compared to the parental rodent or chimeric antibody in a competitive ELISA according to the following protocol: ELISA plates were coated with recombinant hMCAM-His, and blocked with casein buffer to prevent non-specific binding. Biotinylated rodent or chimeric antibody was added at a subsaturating concentration, in the presence or absence of 3× increasing concentrations of unlabeled competitor (humanized antibody, rodent, or chimeric). After washing to remove unbound antibody, streptavidin HRP was added to allow detection of the biotinylated antibody. The ELISA was developed with TMB substrate and the OD450 was measured. The IC50 of the unlabeled competitor was determined using the GraphPad Prism5 software.

recombinant hMCAM-His [2] = biological target: T1, recombinant hMCAM-His; experiment: ForteBio Octet Red, antibody on anti-human Fc sensors, hMCAMHis analyte, 1:1 fit; affinity relative to rodent 2120, Expt. #1
Method: (§2) The affinities were measured using the ForteBio Octet Red. Anti-human Fc sensors were used to capture the humanized antibodies, and several concentrations of hMCAMHis analyte were used to determine the affinity using a 1:1 fitting model.

recombinant hMCAM-His [3] = biological target: T1, recombinant hMCAM-His; experiment: ForteBio Octet Red, antibody on anti-human Fc sensors, hMCAMHis analyte, 1:1 fit; affinity relative to rodent 2120, Expt. #2
Method: as §2

recombinant hMCAM-His [4] = biological target: T1, recombinant hMCAM-His; experiment: competitive ELISA on coated hMCAM-His, competitor biotinylated rodent or chimeric 2120; IC50 relative to rodent 2120, Expt. #1
Method: as §1

recombinant hMCAM-His [5] = biological target: T1, recombinant hMCAM-His; experiment: competitive ELISA on coated hMCAM-His, competitor biotinylated rodent or chimeric 2120; IC50 relative to rodent 2120, Expt. #2
Method: as §1

[6] = biological target: B1; experiment: laminin/FACS assay: blocking of recombinant laminin 411 binding to hMCAM expressing CHO cells, relative to rodent 2120, Expt#1
Method: (§3) Following incubation for 30-45 minutes, the cells were washed and anti-laminin conjugated to AF650 (NovusBio) was added to detect the bound laminin. The cells were run on a flow cytometer to measure the laminin binding signal.

[7] = biological target: B1; experiment: laminin/FACS assay: blocking of recombinant laminin 411 binding to hMCAM expressing CHO cells, relative to rodent 2120, Expt#2
Method: as §3

recombinant hMCAM-His [8] = biological target: T1, recombinant hMCAM-His; experiment: ForteBio Octet Red, antibody on anti-human Fc sensors, hMCAMHis analyte, 1:1 fit; affinity relative to rodent 2120, first Forte column
Method: as §2

recombinant hMCAM-His [9] = biological target: T1, recombinant hMCAM-His; experiment: ForteBio Octet Red, antibody on anti-human Fc sensors, hMCAMHis analyte, 1:1 fit; affinity relative to rodent 2120, second Forte column
Method: as §2

recombinant hMCAM-His [10] = biological target: T1, recombinant hMCAM-His; experiment: summary of ForteBio and competitive ELISA on hMCAM-His
Method: as §1, §2

[11] = biological target: B1; experiment: summary of laminin blocking assay on hMCAM expressing CHO cells
Method: as §3

recombinant laminin 511 = biological target: T2, recombinant laminin 511 (UniProt O15230 36-3695; P07942 22-1786; P11047 34-1609); experiment: flow cytometry with a pan-laminin antibody on CHO cells transfected with human MCAM
T2 construct: also called laminin 10 (α5β1γ1)

Row | Fold over rodent (ELISA) (recombinant hMCAM-His [1]) | Fold over rodent (Forte) (recombinant hMCAM-His [2]) | Fold over rodent (Forte) (recombinant hMCAM-His [3]) | Fold over rodent (ELISA) (recombinant hMCAM-His [4]) | Fold over rodent (ELISA) (recombinant hMCAM-His [5]) | Fold over rodent (Blocking) [6] | Fold over rodent (Blocking) [7] | Fold over rodent (Forte) (recombinant hMCAM-His [8]) | Fold over rodent (Forte) (recombinant hMCAM-His [9]) | reduction in affinity (fold, against rodent 2120) (recombinant hMCAM-His [10]) | reduction in potency (fold, against rodent 2120) [11] | binding result (recombinant laminin 511) | Binder
1 | 1.8 fold | 5.64 fold | 6.21 fold | 2.23 fold | 2.42 fold | 1.7 fold | 2.8 fold | 5.9 fold | 5.8 fold | – | – | – | humanized anti-MCAM antibody h2120_VH1 + h2120_VL3 (antibody, V domains shown, V regions cloned into vectors containing human CK (VL) or human IgG1 (VH); also called h2120VH1VL3; Standard VH + conservative VL) VH: QVTLKESGPVLVKPTETLTLTCTVSGFSLTSNGVSWVRQPPGKALEWIAAISSGGTTYYNSAFKSRLTISRDTSKSQVVLTMTNMDPVDTATYYCARRYGYGWYFDFWGQGTLVTVSS VL: DIQMTQSPSSLSASVGDRVTINCKASQNIYNSLAWYQQKPGKAPKVLIFNANSLQTGIPSRFSGSGSGTDFTLTISSLQPEDFATYYCQQFYSGYTFGQGTKLEIK
2 | 2.4 fold | – | – | – | – | 1.2 fold | 1.5 fold | 1.1 fold | 1.2 fold | < 2 fold | < 2 fold | – | humanized anti-MCAM antibody h2120_VH5 + h2120_VL3 (antibody, V domains shown, Human IgG1 / human kappa; also called h2120VH5VL3; VH5VL3) VH: QVTLKESGPVLVKPTETLTLTCTVSGFSLTSNAVSWVRQPPGKALEWIAAISSGGTTYYNSAFKSRLTISRDTSKSQVVLTMTNMDPVDTATYYCARRYGYGWYFDFWGQGTLVTVSS VL: DIQMTQSPSSLSASVGDRVTINCKASQNIYNSLAWYQQKPGKAPKVLIFNANSLQTGIPSRFSGSGSGTDFTLTISSLQPEDFATYYCQQFYSGYTFGQGTKLEIK
3 | – | – | – | – | – | – | – | – | – | – | – | no binding (tested: 10 µg/ml) | B1
